T1: SPD-5::TagRFP (C. elegans, UniProt P91349 1-1198)
T1 sequence (looked up): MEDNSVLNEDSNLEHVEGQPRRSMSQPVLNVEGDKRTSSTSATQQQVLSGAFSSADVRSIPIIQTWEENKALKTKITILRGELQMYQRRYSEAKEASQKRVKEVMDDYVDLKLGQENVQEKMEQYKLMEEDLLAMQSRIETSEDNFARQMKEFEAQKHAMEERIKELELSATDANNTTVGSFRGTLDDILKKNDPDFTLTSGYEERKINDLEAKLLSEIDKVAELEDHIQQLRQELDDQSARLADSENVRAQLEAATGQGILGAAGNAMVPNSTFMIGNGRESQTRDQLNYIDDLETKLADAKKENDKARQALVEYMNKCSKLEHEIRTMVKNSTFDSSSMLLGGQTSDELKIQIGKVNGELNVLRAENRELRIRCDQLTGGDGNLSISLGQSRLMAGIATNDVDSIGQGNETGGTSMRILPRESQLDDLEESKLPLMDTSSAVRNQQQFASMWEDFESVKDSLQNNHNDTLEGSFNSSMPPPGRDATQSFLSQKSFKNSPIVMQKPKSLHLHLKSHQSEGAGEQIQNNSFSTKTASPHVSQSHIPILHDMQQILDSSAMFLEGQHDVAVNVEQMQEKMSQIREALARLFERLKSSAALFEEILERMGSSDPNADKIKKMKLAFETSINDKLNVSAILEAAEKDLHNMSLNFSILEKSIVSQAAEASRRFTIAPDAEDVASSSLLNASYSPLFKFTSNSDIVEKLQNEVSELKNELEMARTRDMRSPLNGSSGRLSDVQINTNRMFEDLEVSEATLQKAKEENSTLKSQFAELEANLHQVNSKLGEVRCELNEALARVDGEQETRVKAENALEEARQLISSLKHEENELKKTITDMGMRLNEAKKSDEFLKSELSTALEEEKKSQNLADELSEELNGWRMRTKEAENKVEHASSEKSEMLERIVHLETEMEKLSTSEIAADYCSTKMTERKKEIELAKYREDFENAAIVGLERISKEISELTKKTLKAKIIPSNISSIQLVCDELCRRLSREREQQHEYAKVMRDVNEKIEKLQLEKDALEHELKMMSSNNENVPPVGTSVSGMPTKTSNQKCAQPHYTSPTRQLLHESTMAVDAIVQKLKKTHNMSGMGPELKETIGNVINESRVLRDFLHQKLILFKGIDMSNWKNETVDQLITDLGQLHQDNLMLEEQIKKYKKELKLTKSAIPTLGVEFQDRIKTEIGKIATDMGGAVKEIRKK

T2: SPD-5::TagRFP (C. elegans), P91349
T2 chain: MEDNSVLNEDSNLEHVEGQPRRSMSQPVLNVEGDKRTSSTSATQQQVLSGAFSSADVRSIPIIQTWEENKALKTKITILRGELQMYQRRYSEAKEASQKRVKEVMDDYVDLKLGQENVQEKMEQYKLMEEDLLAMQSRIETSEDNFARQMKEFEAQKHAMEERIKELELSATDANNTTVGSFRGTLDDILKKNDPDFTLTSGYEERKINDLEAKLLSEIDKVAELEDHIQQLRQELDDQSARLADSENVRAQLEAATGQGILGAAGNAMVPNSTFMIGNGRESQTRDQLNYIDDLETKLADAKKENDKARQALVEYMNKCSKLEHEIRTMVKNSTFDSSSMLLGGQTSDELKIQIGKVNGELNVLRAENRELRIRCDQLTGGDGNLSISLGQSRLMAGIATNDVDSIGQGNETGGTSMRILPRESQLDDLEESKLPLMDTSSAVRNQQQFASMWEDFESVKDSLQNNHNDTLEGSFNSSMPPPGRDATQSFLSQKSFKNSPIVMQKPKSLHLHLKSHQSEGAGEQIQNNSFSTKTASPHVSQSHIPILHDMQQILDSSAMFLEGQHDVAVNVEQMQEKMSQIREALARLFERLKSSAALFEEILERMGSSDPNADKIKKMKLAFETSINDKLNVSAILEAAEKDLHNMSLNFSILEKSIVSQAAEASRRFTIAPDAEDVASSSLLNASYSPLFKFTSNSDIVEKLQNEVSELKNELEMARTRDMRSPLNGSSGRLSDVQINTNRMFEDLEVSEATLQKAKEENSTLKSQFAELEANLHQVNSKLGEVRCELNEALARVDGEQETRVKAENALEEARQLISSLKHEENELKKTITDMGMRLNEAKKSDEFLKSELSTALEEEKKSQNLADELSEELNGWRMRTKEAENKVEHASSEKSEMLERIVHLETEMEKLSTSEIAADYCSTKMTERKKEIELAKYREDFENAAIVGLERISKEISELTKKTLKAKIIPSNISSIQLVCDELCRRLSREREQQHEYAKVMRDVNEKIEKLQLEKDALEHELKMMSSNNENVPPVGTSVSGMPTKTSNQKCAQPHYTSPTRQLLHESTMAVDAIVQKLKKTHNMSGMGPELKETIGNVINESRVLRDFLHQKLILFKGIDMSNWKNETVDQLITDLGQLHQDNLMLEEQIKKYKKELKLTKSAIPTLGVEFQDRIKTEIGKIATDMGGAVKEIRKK


Tests used:
[1] = target: T1, SPD-5::TagRFP; experiment: partitioning into droplets by fluorescence microscopy
[2] = target: T2, SPD-5::TagRFP (C. elegans), P91349; experiment: as above; details: remark: other sources report otherwise

Row | Molecule | partition coefficient (droplet vs. bulk) [1] | partition coefficient (droplet vs. bulk) [2]
1 | TPXL-1::GFP (natural protein) | 59 | –
2 | GFP::SPD-2 (natural protein, C. elegans, UniProt P91870 1-824, looked up) MEDDAPMNLCNEQFEEIEDSPIDDNDNESFYNADGDVELEEEEVHETPKNFKNGGRFKTNMTNPKVNDLTTIEEKNEDLRSAASSRSASRPASVMSDKSFSSQFEFQSGGENAIEEYTNQVFADENKADLLFPETSKFMNGASPPKDKHHSWEPSIHHYDKQPPPDIQTNSPVFGNLNHRKNKLIPQARAKPGANDNEIVERDNDENVPTTSDKSAFITSPMNSTNHDEKTSTPKRPTNRKIGQYQGPNFDLSSIYVGSPQHQNTSISTGQQMPTSSYSHAHSETMMTNQTINESMVRRVLNGNNKNQDLFAALEEARKRRAAQPSKPDFRINTTRTRVPIKPTSARHSGNVVSSTSNDNTTAASSKDLTTSRKAMETFRQNASMADATNSNTASMTSILSTISTARTDISRSSRNHGGGFSNTSVSTVIPANNGNVSLSHGRDGRDSVSSVRTMSRASSTSTVYAGSTFSGVSKPLRIHAKRVAFGCVAVGETLRVEVEVENISDRQCLVRASTDSTTPVYQILDNKLTMVDPKKSIKFQVSFSPSSVGRYQVIMSIEVPAQNFIHKIPMWGNGGIAKFVPTSPDLQQTINQSEYAMCTSCAKRISFKISNSAGTRDGFAMIKVFDSAMRQLPDGCVAFFPAPGFIVKKKSDKRVDIRIDSSYIDLHDENNFRTSSSLSTASTTSSFQRRILPGAKFFVHVVWGEETMRTRLRLLEVRTGQHQLIDGHDFTSFQFSDEEVLRAVPVGFPAIKPEDRDLFAASYRSFFINFFTSTTEFRAATSRKKKEICSNDDSTLLETTAFRNQTFVNDVTIVPNTRFSNRK | 67 | –
3 | ZYG-9::GFP (natural protein, C. elegans, UniProt G5EEM5 1-1415, looked up) MSNWDYLDEVDILPKLPPNFDELRESKKWQERKEALEALLKVLTDNERLSTKASYAELIGHLQMVLAKDANINCQALAAKCIGKFATGLRAKFSSFAGPLLPVIFEKMKEKKPMLREPLVDCSNEVGRTMQSLETGQEDILAALAKPNPQIKQQTALFVARQLDLVVPAKQPKGFIKAVVPVFGKLTGDADQDVREASLQGLGAVQRIIGDKNVKNLLGDASSDEGKMKKIGEYAEKSTASFAEEQAKNAPPVAPTSSTPSASAASGDPSGGTATAVVSSGAPVAEADPWDFLDAFDVLSKMPDGFDTNIESKKWQERKEALEGLLQLITANPKLDPKANYGALVERLQKVLEKDANINVAALAANCITGIANGLRTKFQPFAVSVTPIIFEKFKEKKPTLRDPLVACIDAVVATTNLEAVGEIVLAALGKPNPSIKTQTDLFLQRCFMKLNSQTMPKKTLKTLIPSLIKHSGDSDSEVREASYAAMGAMMRAIGEKPSLQLLADIASDNLKMSKIKEFHQKALDEAGPAEIAEMVKSIHKADAPPAAAPPKKTAPPKKQPEDEEVVEEEDEPLKPPPGDKKKKVPVKENEENEPPVVAPKAELLLSDNEDKKQRIKEEKQLKLVKWNFQAPTDEHISQLQTLLGNQAKVSLMSQLFHKDFKQHLAALDSLVRLADTSPRSLLSNSDLLLKWCTLRFFETNPAALIKVLELCKVIVELIRDTETPMSQEEVSAFVPYLLLKTGEAKDNMRTSVRDIVNVLSDVVGPLKMTPMLLDALKSKNARQRSECLLVIEYYITNAGISPLKSLSVEKTVAPFVGDKDVNVRNAAINVLVACFKFEGDQMWKAAGRMADKDKSLVEERIKRTGVKPGSGVVTSPPTGGPKILVPQQQGSVVRRPASRSRTREPEPEEVQSDTFTIRQDTMPPKTSSRYALRDDVFSSAMGRLDGTQVITPPQPVNGWSNNTFQMKRTNSSSSISSIDTSDQIQRSINNISSSLADVAQDAMFQVTYVLNQPEQRHLVDRRADLVFRASAAQLDLVIEEFNAGRDVSGTMDACTQMLFILMGGVETEHGLEPLNASPDTVKAIISSVLRCIIQIGNTESGYGMARSLNRLAMRLIYRVELSNLLCGLILAMTESLQMNTGITELVSKLSSKWCDELEKRRAQLRASDIVDSFNAFYVCALTELKMDISDSHILIVDNYLERVILQQGDVVLDAARRLSRPHMHLTSMINKILQMMRERKIDPIMPGTLEARMPQEDEAVVVRSGVQVSIDNILRDTSMAVKHIEQLNILIASSDRSWNEYMEYLKNNPMGELIKELVGECSRKKRIDFNLSHVVKSSMAVFKAMAATGPVQEEGRITPTDINRMDTMIVGTPLSRGDATITRARGNMIRPKRTTLSRDQMANIRHTLDRVKNH | 101 | –

Results, then the molecule that gave them:

Row | partition coefficient (droplet vs. bulk) [1] | partition coefficient (droplet vs. bulk) [2] | Molecule
4 | 3.2 | – | EB1-GFP (natural protein, UniProt Q15691 1-268, looked up) MAVNVYSTSVTSDNLSRHDMLAWINESLQLNLTKIEQLCSGAAYCQFMDMLFPGSIALKKVKFQAKLEHEYIQNFKILQAGFKRMGVDKIIPVDKLVKGKFQDNFEFVQWFKKFFDANYDGKDYDPVAARQGQETAVAPSLVAPALNKPKKPLTSSSAAPQRPISTQRTAAAPKAGPGVVRKNPGVGNGDDEAAELMQQVNVLKLTVEDLEKERDFYFGKLRNIELICQENEGENDPVLQRIVDILYATDEGFVIPDEGGPQEEQEEY
5 | – | 19.8 | PLK-1::GFP, P34331 1-648 (enzyme) MNRLPNIAKPPQKSNQRKEKAPPEVPALIADKDRGTYYEKGRFLGKGGFAHCYELTNRATREVVAGKVVPKSMLVKQYQRDKMTQEVQIHRELGHINIVKLFNFFEDNLNVYITLELCARRSLMELHKRRKAVTEPEARYFTHQIVDGVLYLHDLNIIHRDMKLGNLFLNDDLVVKIGDFGLATTVNGDERKKTLCGTPNYIAPEVLNKAGHSFEVDIWAVGCILYILLFGQPPFESKSLEETYSRIRHNNYTIPSIATQPAASLIRKMLDPEPTRRPTAKQVQRDGFFKSGFMPTRLPVSCLTMVPKFGGHETSMMEENVAPRGVDARSQRPLNGRAGLSALPQHIVSNNADRERAQQQAAEATFREPEDAYLSQLFHQVAVLLEQRIPGLEEEEAALDGYQSPECLPVFWISKWVDYSDKYGIGYQLCDNSVGVLFNDNSRIMLDQAGNELTYIEKSNKEHYFSMHSGEMPGLLNKKVTLLKYFRSYMNDHLVKAGEGSEQRAGDDLARLPTLRVWFRTKSAIVLHLSNGTVQINFFNDHVKMMMCPLMQAVTFIDQNKRMLTYKLNNLQRNGCPEKFLHRLKYAKTMIERLMSDANVVSQNPARQPDMPRSMAAARSASAGSRGPNQAASHLPQSASGSNIHPRR

Source: article doi:10.1101/093054 (bioRxiv, 2016)
